Biological target: the molecule itself
Experiment: SEC; analytical SEC of the pools of the downstream process; Superdex 200 GL, 50 mM sodium phosphate buffer pH 8, UV detection at 226 and 280 nm; column calibrated with seven proteins of 13.7 to 669 kDa; oligomer size from the calibration (with IEF profile and activity test as support)

B1: recombinant urate oxidase from Aspergillus flavus (rasburicase) (enzyme, UniProt Q00511 1-302, looked up)
chain: MSAVKAARYGKDNVRVYKVHKDEKTGVQTVYEMTVCVLLEGEIETSYTKADNSVIVATDSIKNTIYITAKQNPVTPPELFGSILGTHFIEKYNHIHAAHVNIVCHRWTRMDIDGKPHPHSFIRDSEEKRNVQVDVVEGKGIDIKSSLSGLTVLKSTNSQFWGFLRDEYTTLKETWDRILSTDVDATWQWKNFSGLQEVRSHVPKFDATWATAREVTLKTFAEDNSASVQATMYKMAEQILARQQLIETVEYSLPNKHYFEIDLSWHKGLQNTGKNAEVFAPQSDPNGLIKCTVGRSSLKSKL
notes: urate oxidase (uricase, EC 1.7.3.3) from Aspergillus flavus, recombinant form (rasburicase); subunit of about 34 kDa, 135 kDa tetramer of identical subunits; Several isoforms are seen by IEF even in the purest pool; also called Fasturtec; Elitek; source: expressed in a genetically modified Saccharomyces cerevisiae strain; supplied by Sanofi-Aventis, sampled at different steps of the downstream …
Question: How did the “stoichiometry N” value turn out when B1 was run?
Answer: Its value is 4.

Reference: paper PMC3092763, “Urate Oxidase Purification by Salting-in Crystallization: Towards an Alternative to Chromatography” (PLoS ONE, 2011)
